In the DeepSol protein solubility set:

Assay: soluble on expression in E. coli; label from the status in PepcDB or PDB records

| Sequence | soluble on expression in E. coli |
| --- | --- |
| LEKNDLVYMQRAFELNDKVAKDIMIDRTQLVVIDITSTVKEALNVYLQERFSRLPVVADNDKDKVLGYVYNYDLTRQQQVDSSVRVDKLIRDISTTPETTPITQVLQQMIKKRTPIVVVVDEYGGTSGIITDKDIYEEL | not soluble |
| LESLLTLPLAGEARVRILQITDTHLFAQKHEALLGVNTWESYQAVLEAIRPHQHEFDLIVATGDLAQDQSSAAYQHFAEGIASFRAPCVWLPGNHDFQPAMYSALQDAGISPAKRVFIGEQWQILLLDSQVFGVPHGELSEFQLEWLERKLADAPERHTLLLLHHHPLPAGCSWLDQHSLRNAGELDTVLAKFPHVKYLLCGHIHQELDLDWNGRRLLATPSTCVQFKPHCSNFTLDTIAPGWRTLELHADGTLTTEVHRLADTRFQPDTASEGY | soluble |
| LEYSDSIDLLNMDLYDLMKLADRLTHYDAGETVSYAISYNINYTNYCTASCPICAFYVPYKNKRFGKGYELTKEQVRKEALIAKQKGATEIHIVGGFDPDLSIEYYEDIFRTIRGIMPNVAIKAFTIPEIDFIARTTGNSIKETVLRFMDAGMNAHTGGGAEIFDQEIRKYITTPEKVSGEKWLEDAKIIHSLGLKGNSTMTYGHIEGWEHIIDHMIRLRDNQIEVPGFLSFIPLKFSPENTALLRSGRVHGPAPVDKDLKVIALARIIMGRAIRNISVYWVAIGKLTAQIAINGGGNDLVGTAYSEKVFGATDRKTSTTTEELNNMIRQAGKIPGVR | not soluble |
| LFPDELIDQLLAQVQGKDAESILGESGLAGQLKKQLAERMLAAELSHHLAAETEQGRAGNHRNGTSAKTVLTPNGELKLDIPRDRQATFEPQLVGKYQRRLPGFDDHVISMYARGMSVREIQGHLLELYGLQVSPDLISTVTDEVLADVEQWQQRPLEAMYPIVYFDALRLKIRDEGTVKNKAVYLALGIRAEGRKEVLGLWIEQTEGAKFWLKVFNELRTCQEFRVLRPVK | not soluble |
| LFRRWVIYIIRLYQRWISPLKTMPSCRFYPTCSQYAIDAVGRYGVIKGGFMALKRILKCHPFHPGGYDPVK | soluble |
| LHPFFRSFALRASAHPVLSADFESAFAAARHAAPATAAAVQTAERLPEWNLTDLYPAMDSPELKADLDKADVACKAFETAFKGKLAALLALPDGGAALGAAVKSYEEVDDLLGRIASYGSLIYAGDTSDPARAKFYGDIQERLTDASTHLLFFTLEMNRLDDAALEAAMADPALGYYRPWVEDLRKDKPYQLDDKIEQLFHEKSNPSRGAWSRLFDETISSLRFTVDGQDLAIEPTLNLMQDPREEVRKSAGLALADTFGKNLRLFTLITNTLAKDKEISDRWRGFEDVASSRHLANRVEKEVVDAMVEAIRVSFPRLSHRYYALKARWFGKDRLEFWDRNAPLPKVETRDIGWGEAKDTVLSAYGAFSPKMADIAKTFFEKSWIDAPVRPGKSPGAFAHPTVPSAHPYVLLNYQGKPRDVMTLAHELGHGVHQVLAARQGALMAPTPLTLAETASVFGEMLTFRRLLDGAETPRARKIMLAQKVEDMINTVVRQTAFYTFERDVHIERRQGELTSEKIGEIWMKVQGESLGPAIHLGAGYETFWTYIPHFIHSPFYVYAYAFGDCLVNSLYAVYENAADGFADRYLEMLSAGGTKHHAELLAPFGLDARDPAFWQTGLSLIDRMISELESMEG | soluble |
| LHRYSEVLGLPVICTADGKNLGTIKDIIFCPKEKSVVAFLIECKGYNRRKKVVFASDVLSLGRDALIVNDADDVRDLKKVLHRPEFKDKGDILGLPIYTKNGEDLGTAKDVLFDLKHGKIDGIEVSDGLLQDIVKGRSVLPLIGKVEFGEENILVDNEAVEEMMETGGGIKNLIEGNKKVQRKG | not soluble |
| LIPILGLGNYTAQVDIELDFSAVEQTRKVFDPNTPATRSEYTLEDYNNGNVVAGVPGALSNQPPADASIPQDVAQMKDGSVMGQGSVHKEATRNYELDTTISHERKQSGVINRQTVAVAVKSRSSVNPDTGEVTYTPLSEADLNSIRQVLIGTVGYSENRGDLLNVLSMPF | not soluble |
| LKDFSFDLNVNLAKNVSNVEKLADGVDYIYFNGDSNFPINVGARPGHKLGEIYAKTLYKRDEQGNIIINKENGLPMTTTDADERLAKPIGNIQPNLLMSVSPSFTYKGITLSAIFDMKFGGDIISISEMNATGSGMAKRTMNRGESDNFMMIFPGVYEDGTPNTQKISASNYYGAQNAEDFIYDASFIKLKELAIGYTFPKSMLKKTPINSLNVSFVARNLAYLLKHTPGTSPEGGYDTTMFSQAIDFMAVPYTRTFGFSVNLGF | not soluble |
| LLEKHGVVVRSSNYELYADLSERMMNVIGRFCDNQYIYSIDESFLYFDHYESCINDWHEYGHKIRKAIWKETRLPVGVGFGETATLSKAANHAAKKLSGFN | not soluble |
| LLKEYKNAWDKYDDKQLKEVFALGDRFKNFISNCKTERECVTELIKTAEKSGYRNIEDILAKGETLKEGDKVYANNRGKGLIMFLIGKEPLYTGFKILGAHIDSPRLDLKQNPLYEDTDLAMLETHYYGGIKKYQWVTLPLAIHGVIVKKDGTIVNVCVGEDDNDPVFGVSDILVHLASEQLEKKASKVIEGEDLNILIGSIPLKDGEEKQKVKHNIMKILNEKYDISEEDFVSAELEIVPAGKARDYGFDRSMVMGYGQDDRICAYTSFEAMLEMKNAKKTCITILVDKEEVGSIGATGMQSKFFENTVADIMSLCGDYDELKLRKALYNSEMLSSDVSAAFDPNYPNVMEKRNSAYLGKGIVFNKYTGSRGKSGCNDANPEYIAELRRILSKESVNWQTAELGKVDQGGGGTIAYILAEYGMQVIDCGVALLNMHAPWEISSKADIYETKNGYSAFLNN | soluble |
| LNDFAVRVAKSFSKVSEEKKSGSDIQGVFGIGSLENALYTASFAAGGGDYNNFLFNIKKGRADFSNFFNHNSKTFQSLRDIFNSFKPLIDQKGLISNKHFDTPVNNYAKFHQLAFYVSSTARFPYSFAKDNVKRLIIGKRELEVNPKSMFAIKKENGNNGNSNLLGKVALDNNKSIELYENNIPNGKTDAILIKN | soluble |
| LPLCFADASGTLRYVNDRFTRLFGYAPEDIPTQEEWWSRVCTDGRCRGETADAWQASVQRGPNGASDIEPAEFRVACKNGDIRLVEVSGITIEGTVLATFIDI | not soluble |
| LQSKLSLPKIPNVIECFDISHLSGTATVGSMVQFRGGRPDKHNYRRFKIESVEGIDDFASIAEVVRRRYSRLLEDKHEMPDLIIIDGGKGQLSSAFQELRKLRVKVPIISIAKREEEIYVPGLKSPLPIKKDEKASLFVQEIRDEAHRFAINYNRLLRQKALIQK | not soluble |
| LRIEPVHDVEHSATVRDLEHIVAESRDAGELPRELSTLLGRILDFPTRTAGHAMIPRAHVDTVRAHDSLSSVLEKMGAGHTRYPVVGSSSDDLRGVIHLHDLLGEQSDGPAASRARPAVVVPSSLPLPDVLEQLTAARDEMALVVDEYGGFAGVITIEDLAEELVGEIA | not soluble |
| LRLCQVDRCTADMKEAKLYHRRHKVCEVHAKASSVFLSGLNQRFCQQCSRFHDLQEFDEAKRSCRRRLAGHNERRRKSSGE | soluble |
| LRPVLPTQSAHDPPAVHLSNGPGQEPIAVMTFDLTKITKTSSSFEVRTWDPEGVIFYGDTNPKDDWFMLGLRDGRPEIQLHNHWAQLTVGAGPRLDDGRWHQVEVKMEGDSVLLEVDGEEVLRLRQVSGPLTSKRHPIMRIALGGLLFPASNLRLPLVPALDGCLRRDSWLDKQAEISASAPTSLRSCDVESNPGIFLPPGTQAE | soluble |
| LRSAARTLYTWTLPNEYELIDVREPHEIEHTPSGAHITLPQSMWNDTTAIQHALDNITTDNVVVVCASGIRSAAFIEQFAHLNPHLTFHNVPSGINELP | not soluble |
| LSCLTPDNKPGKCVNIKKCTHLAEIEEDPIGEDETTYLKNSVCAGPEDNSVCCG | soluble |
| LSKPKLAVVGARKCSETGKQSVRKIVHELGNAFTIVSGLARGIDTCAHMEALKNKGNTIAVIGTGLDVYYPKENKALQDYMAKNHLVLTEYGPGEQPLKYHYPERNRIISGLCQGVMVVEAKLRSGSLITCERAMEEGRDVFAIPGNILDGKSDGCHHLIQEGAKCITTGFDIISEFS | not soluble |
| LSLTQLSSGNPVYEKYYRQVEAGNTGRVLALDAAAFLKKSGLPDLILGKIWDLADTDGKGVLSKQEFFVALRLVACAQNGLEVSLSSLSLAVPPPRFHD | soluble |
| LSNFQGKVMMTVNATDVTDVITIPTAAGKNLCIVRAMDVGYMCDDTITYECPVLSAGNDPEDIDCWCTKSAVYVRYGRCT | soluble |
